# Experimental data reported in the DeepSol protein solubility set.
# Assay: soluble on expression in E. coli; label from the status in PepcDB or PDB records
row,Sequence,soluble on expression in E. coli
1,SNEFFPVDDNNEGTDADMKEDSEGPEPKGLSPPHKKSKAKKPESSKDSSEDESGPEEKQTAEEMEGQSQEADGVNTTPVPSPASEDKAEVHKDEADSAKDDNTVKDSDMTNHSVCDQELPNGQENDSAKSEGKTEAESPSSSMETEDLSPNQEDAAIVEQPEVIPLIDDQEAQEGGEAQGKDAPAVFAESQGSSEAENTSGPDVDMNSQVDGVNEPTESLQEDLQ,not soluble
2,SNGILREVSGIASNSAFYWTNLTSKPYMGFRSGRNWSMTSGDIRTVRSQVPEVEFISPIMWGARSNKNVVFGDKSETYSIVGAEPDYFEISRVNILQGRMLNAVDDKLRRKVCMIGKEVKEKLFGTTDPIGQVLRVNGLYYRVIGVLEAKSNNVTIGSSPKRSVYLPYSVLQQISNSGNRVENFAVSAYPSADMKQMFKKTETIIRSRNQIAPDDDKALSKFDISAQFQLMNMIFTGINL,not soluble
3,SNNVLPTWSLDSNGEMRSRLSLSEVLDSGDLMKFAVDKTGCQFLEKAVKGSLTSYQKFQLFEQVIGRKDDFLKLSTNIFGNYLVQSVIGISLATNDDGYTKRQEKLKNFISSQMTDMCLDKFACRVIQSSLQNMDLSLACKLVQALPRDARLIAICVDQNANHVIQKVVAVIPLKNWEFIVDFVATPEHLRQICSDKYGCRVVQTIIEKLTADSMNVDLTSAAQNLRERALQRLMTSVTNRCQELATNEYANYIIQHIVSNDDLAVYRECIIEKCLMRNLLSLSQEKFASHVVEKAFLHAPLELLAEMMDEIFDGYIPHPDTGKDALDIMMFHQFGNYVVQCMLTICCDAVSGRRQTKEGGYDHAISFQDWLKKLHSRVTKERHRLSRFSSGKKMIETLANLRSTHPIYELQ,soluble
4,SNQEPATILLIDDHPMLRTGVKQLISMAPDITVVGEASNGEQGIELAESLDPDLILLDLNMPGMNGLETLDKLREKSLSGRIVVFSVSNHEEDVVTALKRGADGYLLKDMEPEDLLKALHQAAAGEMVLSEALTPVLAASLRANRATTERDVNQLTPRERDILKLIAQGLPNKMIARRLDITESTVKVHVKHMLKKMKLKSRVEAAVWVHQERIF,soluble
5,SNTRNFVLRDEDGNEHGVFTGKQPRQAALKAANRGSGTKANPDIIRLRERGTKKVHVFKAWKEIVDAPKNRPAWMPEKISKPFVKKERIEKLE,soluble
6,SPAPPACDLRVLSKLLRDSHVLHSRLSQCPEVHPLPTPVLLPAVDFSLGEWKTQMEETKAQDILGAVTLLLEGVMAARGQLGPTCLSSLLGQLSGQVRLLLGALQSLLGTQLPPRGRTTAHKDPNAIFLSFQHLLRGKVRFLMLVGGSTLCVRRAPPTTAVPS,soluble
7,SPEFMVKAKSWTLKKHFQGKPTQSDFELKTVELPPLKNGEVLLEALFLSVDPYMRIASKRLKEGAVMMGQQVARVVESKNSAFPAGSIVLAQSGWTTHFISDGKGLEKLLTEWPDKLPLSLALGTIGMPGLTAYFGLLEVCGVKGGETVLVSAAAGAVGSVVGQIAKLKGCKVVGAAGSDEKIAYLKQIGFDAAFNYKTVNSLEEALKKASPDGYDCYFDNVGGEFLNTVLSQMKDFGKIAICGAISVYNRMDQLPPGPSPESIIYKQLRIEGFIVYRWQGDVREKALRDLMKWVLEGKIQYHEHVTKGFENMPAAFIEMLNGANLGKAVVTA,soluble
8,SPGFSVGVIGDMFLLPNLNLRLLPTLHFGDKQFVFSDGEKPVASFSVRSNYLEFPLLLKYGSRRLNNMRPYLIGGPYWTMELGRKKGLEIYTKANDYGVQIGLGCDFYLPFFKLCPELRFSFGFPDVITHERPDLLDDYKLIYTQSISRARTRMIMLTFNFE,not soluble
9,SPNSQYLKTRILDIYTPEQRAGIEKSEDWRQFSRRMDTHFPKLMNELDSVYGNNEALLPMLEMLLAQAWQSYSQRNSSLKDIDIARENNPDWILSNKQVGGVCYVDLFAGDLKGLKDKIPYFQELGLTYLYLMPLFKCPEGKSDGGYAVSSYRDVNPALGTIGDLREVIAALHEAGISAVVDFIFNHTSNEHEWAQRCAAGDPLFDNFYYIFPDRRMPDQYDRTLREIFPDQHPGGFSQLEDGRWVWTTFNSFQWDLNYSNPWVFRAMAGEMLFLANLGVDILRMDAVAFIWKQMGTSCENLPQAHALIRAFNAVMRIAAPAVFFKSQAIVHPDQVVQYIGQDECQIGYNPLQMALLWNTLATREVNLLHQALTYRHNLPEHTAWVNYVRSHDDIGWTFADEDAAYLGISGYDHRQFLNRFFVNRFDGSFARGVPFQYNPSTGDCRVSGTAAALVGLAQDDPHAVDRIKLLYSIALSTGGLPLIYLGDEVGTLNDDDWSQDSNKSDDSRWAHRPRYNEALYAQRNDPSTAAGQIYQGLRHMIAVRQSNPRFDGGRLVTFNTNNKHIIGYIRNNALLAFGNFSEYPQTVTAHTLQAMPFKAHDLIGGKTVSLNQDLTLQPYQVMWLEIA,soluble
10,SPYIPLMEFSCSHSHLVCLPAEWRTSCMPSSKMKEMSSLFPEDWYQFVLRQLECYHSEEKASNVLEEIAKDKVLKDFYVHTVMTCYFSLFGIDNMAPSPGHILRVYGGVLPWSVALDWLTEKPELFQLALKAFRYTLKLMIDKASLGPIEDFRELIKYLEEYERDWYIGLVSDEKWKEAILQEKPYLFSLGYDSNMGIYTGRVLSLQELLIQVGKLNPEAVRGQWANLSWELLYATNDDEERYSIQAHPLLLRNLTVQAAEPPLGYPIYSSKPLHIHLY,not soluble
11,SQLPPGKPEIFKCRSPNKETFTCWWRPGTDGGLPTNYSLTYHREGETLMHECPDYITGGPNSCHFGKQYTSMWRTYIMMVNATNQMGSSFSDELYVDVTYIVQPDPPLELAVEVKQPEDRKPYLWIKWSPPTLIDLKTGWFTLLYEIRLKPEKAAEWEIHFAGQQTEFKILSLHPGQKYLVQVRCKPDHGYWSAWSPATFIQIPSDFTMND,soluble
12,SQPVAITDGIYWVGAVDWNIRYFHGPAFSTHRGTTYNAYLIVDDKTALVDTVYEPFKEELIAKLKQIKDPVKLDYLVVNHTESDHAGAFPAIMELCPDAHVLCTQRAFDSLKAHYSHIDFNYTIVKTGTSVSLGKRSLTFIEAPMLHWPDSMFTYVPEEALLLPNDAFGQHIATSVRFDDQVDAGLIMDEAAKYYANILMPFSNLITKKLDEIQKINLAIKTIAPSHGIIWRKDPGRIIEAYARWAEGQGKAKAVIAYDTMWLSTEKMAHALMDGLVAGGCEVKLFKLSVSDRNDVIKEILDARAVLVGSPTINNDILPVVSPLLDDLVGLRPKNKVGLAFGAYGWGGGAQKILEERLKAAKIELIAEPGPTVQWVPRGEDLQRCYELGRKIAARIAD,soluble
13,SQYSAQRDLRMSPGDTVELGGYHFLFDGAKHHEGPNYTSDKGSIHVSRDGKEIATLHPEKRLYTVQSSMMTEAGIDAGFTRDLYVALGEPLENGAWAVRVHVKPFVR,not soluble
14,SRKVFVGGLPPDIDEDEITASFRRFGPLVVDWPHKAESKSYFPPKGYAFLLFQEESSVQALIDACLEEDGKLYLCVSSPTIKDKPVQIRPWNLSDSDFVMD,soluble
15,SRQETGGNLMSEPLLIARTPDTELFLLPGMANRHGLITGATGTGKTVTLQKLAESLSEIGVPVFMADVKGDLTGIAQAGTASEKLLTRLKNIGVNDWQPHANPVVVWDIFGEKGHTVRATVSDLGPLLLARLLNLNDVQSGVLNIIFRIADDQGLLLLDFKDLRAITQYIGDNAKSFQNQYGNISSASVGAIQRGLLSLEQQGAAHFFGEPMLDIKDWMRTDANGKGVINILSAEKLYQMPKLYAASLLWMLSELYEQLPEAGDLEKPKLVFFFDEAHLLFNDAPQVLLDKIEQVIRLIRSKGVGVWFVSQNPSDIPDNVFGQLGNRVQHALRAFTPKDQKAVKTAAQTMRANPAFDTEKAIQELGTGEALISFLDAKGSPSVVERAMVIAPCSRMGPVTEDERNGLINHSPVYGKYEDEVDRESAYEMLQKGFQASTEQQNNPPVKGKEVAVDDGILGGLKDILFGTTGPRGGKKDGVVQTMAKSAARQVTNQIVRGMLGSLLGGRKR,not soluble
16,SRSFRPLYRLIGWIDRFRVNEPVQELVMAKTDVTEFRKLSEAMLRTAHHNVEVFEQQKEFISHASHELQTPLAISRNKLEMLLQDPSLNEQQLEQIYKAIQSINHIVQLNKTLLLYSKIENHQFPEEESIDVNELLHNLAEEYEAIFANRRIRIVWSRSEPMVLSMNPTLAKVLLSNLLKNAYLHNLERDGEIHIDLTSMHCSIANTGVKNALDETLIFERFYHDMKQAHSSGLGLPIARSICQLYGLRLTYRFENGKHTFSIGKEA,not soluble
17,SRSYRFSDYLHMSVSFSNDMDLFCGEDSGVFSGESTVDFSSSEVDSWPGDSIACFIEDERHFVPGHDYLSRFQTRSLDASAREDSVAWILKVQAYYNFQPLTAYLAVNYMDRFLYARRLPETSGWPMQLLAVACLSLAAKMEEILVPSLFDFQVAGVKYLFEAKTIKRMELLVLSVLDWRLRSVTPFDFISFFAYKIDPSGTFLGFFISHATEIILSNIKEASFLEYWPSSIAAAAILCVANELPSLSSVVNPHESPETWCDGLSKEKIVRCYRLMKAMAIENNRLNTPKVIAKLRVSVRASSTLTRPSDESSFSSSSPCKRRKLSGYSWVGDETSTSN,soluble
18,SSFFGFGQTAEIDIVLNDAETRKKVEHKTEDGKKDKYFLFYDGETVSGKVNVTLKTPGKRLEHYGIKIEFVGQIELYYDRGNHHEFVSLVKDLARPGELSQSQTFDFELTHVEKPYESYTGQNVKLRYFLRATISRRLNDISKEMDIVVQTLCTYPEINSSIKMEVGIEDCLHIEFEYNKSKYHLRDVIVGKIYFLLVRIKIKHMEIDIIKRETTGTGPSVYHENDTIAKYEIMDGAPVRGESIPIRLFLAGYEMTPTMRDINKKFSVRYYLNLVLIDEEERRYFKQQEITLWRKGDIVRRSMSQQATIAAQRYEGSNPEPTSAQAKEETD,soluble
19,SSLDDKPQFPGASAEFIDKLEFIQPNVISGIPIYRVMDRQGQIINPSEDPHLPKEKVLKLYKSMTLLNTMDRILYESQRQGRISFYMTNYGEEGTHVGSAAALDNTDLVFGQYREAGVLMYRDYPLELFMAQCYGNISDLGKGRQMPVHYGCKERHFVTISSPLATQIPQAVGAAYAAKRANANRVVICYFGEGAASEGDAHAGFNFAATLECPIIFFCRNNGYAISTPTSEQYRGDGIAARGPGYGIMSIRVDGNDVFAVYNATKEARRRAVAENQPFLIEAMTYAIGHASTSDDSSAYRSVDEVNYWDKQDHPISRLRHYLLSQGWWDEEQEKAWRKQSRRKVMEAFEQAERKPKPNPNLLFSDVYQEMPAQLRKQQESLARHLQTYGEHYPLDHFDK,soluble
20,SSNAKIDQLSSDVQTLNAKVDQASNDANAARSDAQAAKDDAARANQRLDNMATKYR,soluble
21,SSQQRPARKLPSLLLDPTEETVRRRCRDPINVEGLLPSKIRINLEDNVQYVSMRKALKVKRPRFDVSLVYLTRKFMDLVRSAPGGILDLNKVATKLGVRKRRVYDITNVLDGIDLVEKKSKNHIRWIGSDLSNFGAVPQQKKLQEELSDLSAMEDALDELIKDCAQQLFELTDDKENERLAYVTYQDIHSIQAFHEQIVIAVKAPAETRLDVPAPREDSITVHIRSTNGPIDVYLCEVEQGQTSNKRSEGVGTSSSESTHPEGPEEEENPQQSEELLEVSN,soluble
22,SSSESEKDKERLIQAAKMFFFHVQDLASVINTLTELFSRSMNTQILLMAVRNNSYIKDFFEQMLKIFKEMQSVVDARHDKIQKESLCSKVAMAMCSVVQKSTNVEELHQSAKEVFKSAHTPVIISVLNSSNILGSLESSLSHLMKFPIMNLQLSDFYTEDTKEQSDVTTSERTRSPPGSSKTTMIDTLKKLQDVLKTEDSKNPTKSAADLLEQIVKAMGPILEILQKAIKTMEMNISVFKKASDK,soluble
23,SSSSDESEVKEAPKEEAKADKPKVSAPAQRGSDFANIGPMYPLDPFTLNLLSDSGSRYVKCTIELEQNSELLKPELDKKVPVIRDIIIRTLTAKTFEEVSTQKGKERLKDELVGKINEILTDGFIKNVYFTDFVVS,not soluble
